In paper PMC12221368, “Long AKAP18 isoforms anchor ubiquitin specific proteinases and coordinate calcium reuptake at the sarcoplasmic reticulum” (The Journal of Biological Chemistry, 2025):

Columns and labels:
[1] = molecular target: GFP-AKAP18γ (UniProt Q9P0M2)
[2] = molecular target: GFP-AKAP18δ (UniProt Q6JP77 1-353); experiment: cell-based or functional assay
Sequence of GFP-AKAP18δ (Q6JP77 whole entry, stated change not applied): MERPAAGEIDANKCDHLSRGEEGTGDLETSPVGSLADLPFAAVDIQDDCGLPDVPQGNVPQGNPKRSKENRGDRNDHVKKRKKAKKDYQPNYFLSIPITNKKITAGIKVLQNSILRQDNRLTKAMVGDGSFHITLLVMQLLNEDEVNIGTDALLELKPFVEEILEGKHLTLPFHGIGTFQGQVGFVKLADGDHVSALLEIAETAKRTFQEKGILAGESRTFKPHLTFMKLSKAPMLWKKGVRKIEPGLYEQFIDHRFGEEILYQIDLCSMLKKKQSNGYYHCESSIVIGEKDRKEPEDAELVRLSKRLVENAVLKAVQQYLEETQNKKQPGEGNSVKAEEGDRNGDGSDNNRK

Sequence of GFP-AKAP18γ (Q9P0M2 whole entry): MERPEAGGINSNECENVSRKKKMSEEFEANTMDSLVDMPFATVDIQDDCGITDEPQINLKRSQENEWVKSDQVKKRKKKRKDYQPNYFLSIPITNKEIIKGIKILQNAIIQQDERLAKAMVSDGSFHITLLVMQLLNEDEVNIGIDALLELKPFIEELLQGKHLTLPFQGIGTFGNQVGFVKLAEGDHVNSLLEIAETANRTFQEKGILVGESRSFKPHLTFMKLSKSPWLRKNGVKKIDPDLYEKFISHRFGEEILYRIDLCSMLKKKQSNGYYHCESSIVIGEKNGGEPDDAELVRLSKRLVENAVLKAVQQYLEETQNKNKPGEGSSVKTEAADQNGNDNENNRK

deubiquitinase activity (Ub-AMC fluorescent assay) in GFP immune complexes, fold over IgG controls, n = 3 [1]: 7.5 fold
deubiquitinase activity (Ub-AMC fluorescent assay) in GFP immune complexes, fold over IgG controls, n = 3 [2]: 9.2 fold
B1: V5-tagged USP4 (enzyme, UniProt Q13107 1-963, looked up)
chain: MAEGGGCRERPDAETQKSELGPLMRTTLQRGAQWYLIDSRWFKQWKKYVGFDSWDMYNVGEHNLFPGPIDNSGLFSDPESQTLKEHLIDELDYVLVPTEAWNKLLNWYGCVEGQQPIVRKVVEHGLFVKHCKVEVYLLELKLCENSDPTNVLSCHFSKADTIATIEKEMRKLFNIPAERETRLWNKYMSNTYEQLSKLDNTVQDAGLYQGQVLVIEPQNEDGTWPRQTLQSKSSTAPSRNFTTSPKSSASPYSSVSASLIANGDSTSTCGMHSSGVSRGGSGFSASYNCQEPPSSHIQPGLCGLGNLGNTCFMNSALQCLSNTAPLTDYFLKDEYEAEINRDNPLGMKGEIAEAYAELIKQMWSGRDAHVAPRMFKTQVGRFAPQFSGYQQQDSQELLAFLLDGLHEDLNRVKKKPYLELKDANGRPDAVVAKEAWENHRLRNDSVIVDTFHGLFKSTLVCPECAKVSVTFDPFCYLTLPLPLKKDRVMEVFLVPADPHCRPTQYRVTVPLMGAVSDLCEALSRLSGIAAENMVVADVYNHRFHKIFQMDEGLNHIMPRDDIFVYEVCSTSVDGSECVTLPVYFRERKSRPSSTSSASALYGQPLLLSVPKHKLTLESLYQAVCDRISRYVKQPLPDEFGSSPLEPGACNGSRNSCEGEDEEEMEHQEEGKEQLSETEGSGEDEPGNDPSETTQKKIKGQPCPKRLFTFSLVNSYGTADINSLAADGKLLKLNSRSTLAMDWDSETRRLYYDEQESEAYEKHVSMLQPQKKKKTTVALRDCIELFTTMETLGEHDPWYCPNCKKHQQATKKFDLWSLPKILVVHLKRFSYNRYWRDKLDTVVEFPIRGLNMSEFVCNLSARPYVYDLIAVSNHYGAMGVGHYTAYAKNKLNGKWYYFDDSNVSLASEDQIVTKAAYVLFYQRRDDEFYKTPSLSSSGSSDGGTRPSSSQQGFGDDEACSMDTN
